B2: human CD127 (IL-7Rα) expressed on cells (CD127-transfected CHO cells; PBMC / CD4+ T cells in functional assays) (receptor)
chain: ESGYAQNGDLEDAELDDYSFSCYSQLEVNGSQHSLTCAFEDPDVNTTNLEFEICGALVEVKCLNFRKLQEIYFIETKKFLLIGKSNICVKVGEKSLTCKKIDLTTIVKPEAPFDLSVIYREGANDFVVTFNTSHLQKKYVKVLMHDVAYRQEKDENKWTHVNLSSTKLTLLQRKLQPAAMYEIKVRSIPDHYFKGFWSEWSPSYYFRTPEINNSSGEMDPILLTISILSFFSVALLVILACVLWKKRIKPIVWPSLPDHKKTLEHLCKKPRKNLNVSFNPESFLDCQIHRVDDIQARDEVEGFLQDTFPQQLEESEKQRLGGDVQSPNCPSEDVVVTPESFGRDSSLTCLAGNVSACDAPILSSSRSLDCRESGKNGPHVYQDLLLSLGTTNSTLPPPFSLQSGILTLNPVAQGQPILTSLGSNQEEAYVTMSSFYQNQ
notes: The construct transfected into CHO is not described further; The same entry is used for native CD127 on human PBMC/T cells in functional rows; also called CHO-CD127; IL-7Rα expressed on CHO

Assay [1] addresses human CD127 (IL-7Rα) expressed on cells (CD127-transfected CHO cells; PBMC / CD4+ T cells in functional assays) (human) (UniProt P16871). Briefly: cell-based or functional assay.
Assay [2] shares this target. Briefly: binding to CHO cells expressing IL-7Rα (flow cytometry). In general terms: Flow cytometry measures light scatter and fluorescence of single cells or particles in a stream.
The target of assay [3] is recombinant human CD127 extracellular domain (CD127 ECD) (human) (UniProt P16871). Briefly: BIAcore blocking assay: inhibition ratio of CD127 ECD binding to immobilised IL-7 against antibody concentration.
Assay [4] shares this target. Description: blocking of IL-7/IL-7Rα binding, competitor IL-7; format not given.
For assay [5] the target is unchanged. Briefly: SPR (profile summary).
Assay [6] has as its target T1, recombinant human CD127 extracellular domain (CD127 ECD) (human, UniProt P16871 21-219).
T1 construct: The assays only say 'recombinant human CD127 ECD'; also called IL-7Rα EDC; IL-7Rα
T1 chain: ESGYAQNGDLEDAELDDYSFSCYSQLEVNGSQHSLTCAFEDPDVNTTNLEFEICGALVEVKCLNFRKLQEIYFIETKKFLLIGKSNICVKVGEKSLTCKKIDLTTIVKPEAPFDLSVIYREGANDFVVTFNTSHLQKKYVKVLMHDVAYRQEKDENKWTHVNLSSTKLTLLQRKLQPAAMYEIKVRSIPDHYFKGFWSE
Briefly: SPR, Biacore T100, 25° C.; antibody captured on rabbit anti-mouse IgG, CD127 ECD as analyte. As to the method: Antibody kinetics were assessed using a Biacore T100 system (GE Healthcare) with a reaction temperature of 25° C. Rabbit anti-mouse IgG antibody was immobilized on a CM5 biosensor chip with a final level of […] (response units) using the standard amine coupling kit and procedure. HBS-EP buffer pH 7.4 (consisting of 10 mM HEPES, 0.15 M sodium chloride, 3 mM EDTA and 0.005% v/v surfactant P20) was used as running buffer. Sensograms were run against a reference cell that was blank immobilized using EDC/NHS/ethanol amine. […] The sensor chip surfaces were regenerated with 10 mM Glycine-HCl, pH 1.7. Kd values were calculated using the Biacore evaluation software package.

Assay [7] deals with B2. Briefly: cell-based or functional assay.
The next assay concerns the target T2, recombinant human IL-7 (human, UniProt P13232 26-177).
T2 sequence (looked up): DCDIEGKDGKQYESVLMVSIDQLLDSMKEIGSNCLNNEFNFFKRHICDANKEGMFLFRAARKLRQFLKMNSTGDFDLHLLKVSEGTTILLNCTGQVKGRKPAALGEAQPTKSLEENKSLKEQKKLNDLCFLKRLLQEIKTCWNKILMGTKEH
Briefly: flow cytometry competition on CHO-CD127 cells: pre-incubation with IL-7, then staining with 6A3 (competitor read out: 6A3). As to the method: After the incubation, anti-CD127 antibodies were added and the incubation continued for additional 30 min in 4% FCS in DPBS (FACS buffer). Afterward cells were washed in FACS buffer 3 times and stained with anti-mouse IgG ALEXA488 secondary antibody at 1:2000 dilution (Invitrogen Inc. #13-A11017).

The target of assay [8] is T1, recombinant human CD127 extracellular …. Briefly: ELISA, recombinant human CD127 ECD coated on the plate, detection with HRP goat anti-mouse IgG. The text has this:
Anti-CD127 antibodies from the test hybridoma supernatants or purified material were titrated across the plate. The level of binding was detected by treatment with a horse-radish peroxidase (HRP) -conjugated goat-anti-mouse IgG antibody. The ELISA was developed using TMB substrate.

Assay [9] has the same target. Briefly: SPR, Biacore T100; CD127 ECD immobilised on CM5, 9B7 hybridoma supernatant as analyte; table title says 37° C. The protocol:
HBS-EP buffer pH 7.4 (consisting of 10 mM HEPES, 0.15 M sodium chloride, 3 mM EDTA and 0.005% v/v surfactant P20) was used as running buffer. […] Kd values were calculated using the Biacore evaluation software package.

For assay [10], the target named is B2. Briefly: binding to CHO cells expressing IL-7Rα (flow cytometry).
For assay [11], the target named is T1, recombinant human CD127 extracellular …. Description: BIAcore blocking assay: inhibition ratio of CD127 ECD binding to immobilised IL-7 against antibody concentration. The protocol: HBS-EP buffer pH 7.4 (consisting of 10 mM HEPES, 0.15 M sodium chloride, 3 mM EDTA and 0.005% v/v surfactant P20) was used as running buffer. Sensograms were run against a reference cell that was blank immobilized using EDC/NHS/ethanol amine. […] After each injection the sensor chip surfaces were regenerated with 10 mM Glycine-HCl, pH 2.0. […] Inhibition ratio calculated as follows: Inhibition ratio=1−RU(sample)/RU(ECD).

Assay [12] has the same target. Description: SPR (profile summary; differs from Table 3).
Assay [13] has the same target. Briefly: blocking of IL-7/IL-7Rα binding, competitor IL-7; format not stated in the sentence (BIAcore neutralising assay with immobilised IL-7 is described in 2.11). (In general: SPR reads the build-up and loss of mass on a sensor chip optically.)
For assay [14] the target is unchanged. Briefly: blocking of IL-7/IL-7Rα binding, competitor IL-7; format not given.

Consider seven molecules from patent US20110287000A1 (published 2011).

What is called EC50 is the concentration at which the effect is half-maximal. A high value points to lower potency in that assay. What is called IC50 is the midpoint of a concentration-inhibition curve. Broadly, the Kd is the free concentration of one partner at which half of the binding sites on the other are occupied at equilibrium, for simple one-to-one binding. For “R34.34 (Dendritics Inc. #DDX0700), commercial anti-human CD127 antibody”, in [1], the IC50 of inhibition of pSTAT5 signalling was 0.67 µg/ml and the IL-17 production in IL-7 induced differentiated T cells (CCR6+ TH17), donors with inhibition was 6 of 6 donors. The EC50 in assay [2] worked out at 0.01 µg/mL. Further, the IC50 (read off the curve) in assay [3] was 3 µg/mL. Besides, the IC50 in assay [4] turned out to be 1.38 µg/mL. Also, the Kd in [5] came out at 7.74 nM.

B1: mAb 6C5 (murine anti-human CD127 monoclonal antibody) (antibody, mouse IgG1, V domains shown)
VH: EVKLLESGGGLVQPGGSLKLSCAASGFAFSAYWMSWVRQAPGKGLEWIGEINPDSSTINCTPSLKDKFIISRDNAKNTLSLQMNKVRSEDTALYYCARRLRPFWYFDVWGAGTTVTVSS
VL: DVLMTQTPLSLPVSLGDQASISCRSSQSIVQSNGNTYLEWYLQKPGQSPKLLIYKVSNRFSGVPDRFSGSGSGTDFTLKISRVEAEDLGVYYCFQGSHVPRTFGGGTKLEIK
notes: also called antibody 6C5
A word on the koff: it is the rate constant with which the complex falls apart. As a reminder, the kon is the rate constant with which the complex forms. Regarding B1, in assay [6], the Kd was found to be 24.4 nM, the koff turned out to be 0.000436 s⁻¹ and the kon is 17900 M⁻¹ s⁻¹. In assay [7], the “IC50 of inhibition of pSTAT5 signalling” value turned out to be 50 µg/ml.
Turning to B2, the binding result with recombinant human IL-7 is given as “binds”.

B3: mAb 9B7 (murine anti-human CD127 monoclonal antibody) (antibody, IgG1, V domains shown)
VH: QVQLQESGPGLVAPSQSLSITCTVSGFSLSRYNVHWVRQPPGKGLEWLGMIWDGGSTDYNSALKSRLSITKDNSKSQVFLKMNSLQTDDTAMYYCARNRYESGMDYWGQGTTVTVSS
VL: DIVMTQTPSSLTVTAGEKVTMSCKSSQSLLNSGNRKNYLTWYQQKPGQSPKLLIYWASTRESGVPDRFTGSGSGTDFTLIISSVQAEDLAVYYCQNDYTYPFTFGSGTKLEIKR
notes: Mouse hybridoma antibody; also called antibody 9B7; clone 9B7
Usually EC50 (read off the curve) stands for the midpoint of the concentration-response curve. As to B3, in assay [8], the “EC50 (read off the curve)” value was around 0.6 µg/mL. The Kd in assay [9] is 0.556 nM.

B4: mAb 6A3 (murine anti-human CD127 monoclonal antibody) (antibody, mouse IgG1, V domains shown)
VH: DVQLQESGPGLVKPSQSLSLTCTVTGYSITTDYAWNWIRQFPGNKLEWMGYIFYSGSTTYTPSLKSRISITRDTSKNQFFLQLNSVTTEDTATYYCARGGYDVNYFDYWGQGTTLTVSS
VL: DIQMTQSPASQSASLGESVTITCLASQTIGAWLAWYQQKPGKSPQLLIYAATRLADGVPSRFSGSGSGTKFSFKISSLQAEDFVSYYCQQFFSTPWTFGGGTKLEIK
notes: also called antibody 6A3
Turning to B4, the EC50 in [10] came out at 0.19 µg/mL. Moreover, in assay [11], the “IC50 (read off the curve)” value is around 2 µg/mL. Moreover, in assay [12], the Kd stood at 7.99 nM and the koff came out at 0.000334 s⁻¹. Further, the half-maximal inhibitory concentration (IC50) in assay [13] was found to be 1.92 µg/mL. For the same molecule, in assay [6], the Kd is 7.74 nM, the koff amounted to 0.000146 s⁻¹ and the kon amounted to 18900 M⁻¹ s⁻¹. The “IC50 of inhibition of pSTAT5 signalling” value in assay [7] was determined as 0.099 µg/ml.

B5: mAb 1A11 (murine anti-human CD127 monoclonal antibody) (antibody, mouse IgG1, V domains shown)
VH: EVQLQQSGPELLKPGASMKISCKASGYSFTGYTMNWVKQSHGKNLEWIGLINPYNGVTSYNQKFKGKATLTVAKSSSTAYMELLSLTSEDSAVYYCARGDGNYWYFDVWGAGTTVTVSS
VL: EIVLTQSPAITAASLGQKVTITCSASSSVTYMHWYQQKSGTSPKPWIYEISKLASGVPVRFSGSGSGTSYSLTISSMEAEDAAIYYCQEWNYPYTFGGGTKLEIK
notes: also called antibody 1A11
As to B5, a half-maximal response in assay [10] (EC50) required 0.16 µg/mL. Further, the IC50 in assay [14] turned out to be 1.79 µg/mL. Further, in assay [6], the Kd is 3.44 nM and the koff amounted to 0.000251 s⁻¹. In addition, the “IC50 of inhibition of pSTAT5 signalling” value in [7] was 0.088 µg/ml.

B6: mAb GR34 (reverse engineered clone of R34.34) (antibody, mouse IgG1, V domains shown)
VH: EVQLQQSGPELVKPGASMKISCKASGYSFTGYTMNWVKQSHGKNLEWIGLINPYSGITSYNQNFKGKATLTVDKSSSTAYMELLNLTSEDSAVYYCARGDGNYWYFDVWGAGTTVTVSS
VL: EIILTQSPAITAASLGQKVTITCSASSSVSYMHWYQQKSGTSPKPWIYEISKLASGVPARFSGSGSGTSYSLTISSMEAEDAAIYYCQYWNYPYTFGGGTKLEIK
notes: also called antibody GR34
Molecule B6 displayed an EC50 in [10] of 0.27 µg/mL. Moreover, in assay [14], the IC50 was found to be 2.29 µg/mL. In assay [6], the Kd was found to be 15.3 nM and the koff came out at 0.000875 s⁻¹. Moreover, the “IC50 of inhibition of pSTAT5 signalling” value in assay [7] came to 0.22 µg/ml.
